In US20240400703A1:
Where a chain is given by its changes, count along the chain named.

B1: IgG1-CD134-MEDI0562 (antibody, INN chains, looked up, V domains shown)
VH: QVQLQESGPGLVKPSQTLSLTCAVYGGSFSSGYWNWIRKHPGKGLEYIGYISYNGITYHNPSLKSRITINRDTSKNQYSLQLNSVTPEDTAVYYCARYKYDYDGGHAMDYWGQGTLVTVSS
VL: DIQMTQSPSSLSASVGDRVTITCRASQDISNYLNWYQQKPGKAPKLLIYYTSKLHSGVPSRFSGSGSGTDYTLTISSLQPEDFATYYCQQGSALPWTFGQGTKVEIK
modifications: IgG1
B2: IgG1-CD134-RG7888 (antibody, INN chains, looked up, V domains shown)
VH: EVQLVQSGAEVKKPGASVKVSCKASGYTFTDSYMSWVRQAPGQGLEWIGDMYPDNGDSSYNQKFRERVTITRDTSTSTAYLELSSLRSEDTAVYYCVLAPRWYFSVWGQGTLVTVSS
VL: B1 VL with K53R, H55R, Y71F, S92H, A93T, W96P
modifications: IgG1
B3: IgG1-CD134-GBR830 (antibody, INN chains, looked up, V domains shown)
VH: QVTLKESGPALVKPTQTLTLTCSFSGFSLSTSGMGVGWIRQPPGKALEWIAHIWWDDDKYYNTALKTRLTISKDTSKNQVVLTMTNMDPVDTATYYCARIDWDGFAYWGQGTLVTVSS
VL: EIVLTQSPATLSLSPGERATLSCRASSSVSYMHWYQQKPGQAPRPWIYATSNRATGIPARFSGSGSGTDYTLTISSLEPEDFAVYYCQQWSSNPWTFGQGTKVEIK
modifications: IgG1
B4: IgG1-CD134-Hu106 (antibody, from another filing, V domains shown)
VH: QVQLVQSGSELKKPGASVKVSCKASGYTFTDYSMHWVRQAPGQGLKWMGWINTETGEPTYADDFKGRFVFSLDTSVSTAYLQISSLKAEDTAVYYCANPYYDYVSYYAMDYWGQGTTVTVSS
VL: DIQMTQSPSSLSASVGDRVTITCKASQDVSTAVAWYQQKPGKAPKLLIYSASYLYTGVPSRFSGSGSGTDFTFTISSLQPEDIATYYCQQHYSTPRTFGQGTKLEIK
B5: IgG1-CD134-ABBV368 (antibody, INN chains, looked up, V domains shown)
VH: EVQLVESGGGLVQPGGSLRLSCAASGFTFSRYGMSWVRQAPGKGLELVATINSNGGRTYYPDSVKGRFTISRDNAKNSLYLQMNSLRAEDTAVYYCAREGITTAYAMDYWGQGTTVTVSS
VL: DIVMTQSPDSLAVSLGERATINCKASQSVDYDGDSYMHWYQQKPGQPPKLLIYAASILESGVPDRFSGSGSGTDFTLTISSLQAEDVAVYYCQQSNEDPRTFGGGTKVEIK
modifications: IgG1

Tests used:
[1] = target: recombinant human OX40 fused to a His-tag (Acro Biosystems, cat. no. OX0-H5224) (human) (UniProt P43489); test: BLI cross-block; first Ab (competitor): IgG1-CD134-Hu106
[2] = target: recombinant human OX40 fused to a His-tag (Acro Biosystems, cat. no. OX0-H5224) (human) (UniProt P43489); test: BLI cross-block; first Ab (competitor): IgG1-CD134-MEDI0562
[3] = target: recombinant human OX40 fused to a His-tag (Acro Biosystems, cat. no. OX0-H5224) (human) (UniProt P43489); test: BLI cross-block; first Ab (competitor): IgG1-CD134-007
[4] = target: recombinant human OX40 fused to a His-tag (Acro Biosystems, cat. no. OX0-H5224) (human) (UniProt P43489); test: BLI cross-block; first Ab (competitor): IgG1-CD134-RG7888
[5] = target: recombinant human OX40 fused to a His-tag (Acro Biosystems, cat. no. OX0-H5224) (human) (UniProt P43489); test: BLI cross-block; first Ab (competitor): IgG1-CD134-003
[6] = target: recombinant human OX40 fused to a His-tag (Acro Biosystems, cat. no. OX0-H5224) (human) (UniProt P43489); test: BLI cross-block; first Ab (competitor): IgG1-CD134-11D4
[7] = target: recombinant human OX40 fused to a His-tag (Acro Biosystems, cat. no. OX0-H5224) (human) (UniProt P43489); test: BLI cross-block; first Ab (competitor): IgG1-CD134-SF2
[8] = target: recombinant human OX40 fused to a His-tag (Acro Biosystems, cat. no. OX0-H5224) (human) (UniProt P43489); test: BLI cross-block; first Ab (competitor): IgG1-CD134-INCAGN1949
[9] = target: recombinant human OX40 fused to a His-tag (Acro Biosystems, cat. no. OX0-H5224) (human) (UniProt P43489); test: BLI cross-block; first Ab (competitor): IgG1-CD134-49B4-RRE
[10] = target: recombinant human OX40 fused to a His-tag (Acro Biosystems, cat. no. OX0-H5224) (human) (UniProt P43489); test: BLI cross-block; first Ab (competitor): IgG1-CD134-012
[11] = target: recombinant human OX40 fused to a His-tag (Acro Biosystems, cat. no. OX0-H5224) (human) (UniProt P43489); test: BLI cross-block; first Ab (competitor): IgG1-CD134-A4453
[12] = target: recombinant human OX40 fused to a His-tag (Acro Biosystems, cat. no. OX0-H5224) (human) (UniProt P43489); test: BLI cross-block; first Ab (competitor): IgG1-CD134-GBR830
[13] = target: recombinant human OX40 fused to a His-tag (Acro Biosystems, cat. no. OX0-H5224) (human) (UniProt P43489); test: BLI cross-block; first Ab (competitor): IgG1-CD134-h3C8
[14] = target: recombinant human OX40 fused to a His-tag (Acro Biosystems, cat. no. OX0-H5224) (human) (UniProt P43489); test: BLI cross-block; first Ab (competitor): IgG1-CD134-003-HC6LC2-RR
[15] = target: recombinant human OX40 fused to a His-tag (Acro Biosystems, cat. no. OX0-H5224) (human) (UniProt P43489); test: BLI cross-block; first Ab (competitor): IgG1-CD134-ABBV368
[16] = target: recombinant human OX40 fused to a His-tag (Acro Biosystems, cat. no. OX0-H5224) (human) (UniProt P43489); test: BLI cross-block; first Ab (competitor): IgG1-CD134-IBI101

recombinant human OX40 fused to a His-tag (Acro Biosystems, cat. no. OX0-H5224) (human), sequence (P43489 29-214 limits assumed): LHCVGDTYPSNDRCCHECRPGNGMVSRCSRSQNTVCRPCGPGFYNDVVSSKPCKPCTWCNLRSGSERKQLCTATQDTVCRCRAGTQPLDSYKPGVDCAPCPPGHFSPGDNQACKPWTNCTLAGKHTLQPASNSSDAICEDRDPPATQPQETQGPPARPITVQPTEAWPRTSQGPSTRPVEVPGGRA

Binder	association response [1]	association response [2]	association response [3]	association response [4]	association response [5]	association response [6]	association response [7]	association response [8]	association response [9]	association response [10]	association response [11]	association response [12]	association response [13]	association response [14]	association response [15]	association response [16]
B1	0.69 nm	0 nm	1.14 nm	0 nm	1.39 nm	0.14 nm	0.01 nm	0 nm	0.15 nm	0.82 nm	0.41 nm	0.32 nm	0.54 nm	1.73 nm	-0.02 nm	0.28 nm
B2	0.1 nm	0.02 nm	0.47 nm	0.02 nm	0.66 nm	0.11 nm	0.01 nm	0.02 nm	0.02 nm	0.54 nm	0.47 nm	0.26 nm	0.41 nm	1.38 nm	0.01 nm	0.23 nm
B3	0.02 nm	0.33 nm	0.07 nm	0.61 nm	0.97 nm	0.13 nm	0.19 nm	0.01 nm	0 nm	0.84 nm	0.28 nm	0.01 nm	-0.02 nm	1.08 nm	-0.01 nm	0.02 nm
B4	0.05 nm	0.31 nm	0.05 nm	0.02 nm	1.06 nm	0.13 nm	0.03 nm	0 nm	-0.01 nm	0.8 nm	0.29 nm	0.01 nm	0.01 nm	1.39 nm	-0.01 nm	0.01 nm
B5	0 nm	-0.01 nm	0 nm	0.02 nm	1.27 nm	0.13 nm	0.04 nm	0.01 nm	0 nm	0.87 nm	0.29 nm	0.01 nm	-0.03 nm	1.68 nm	-0.04 nm	0.01 nm
